Experimental data from paper PMC7736808, “Dual conformational recognition by Z-DNA binding protein is important for the B–Z transition process”.

Key:
hZαADAR1 = target: T1, hZαADAR1 (human, UniProt P55265); assay: MST; 20 mM NaCl; text says 1.8 uM; MST at 22 C, 5 nM labeled DNA, 0.5 mg/ml BSA, 0.05% Tween 20; 5 mM HEPES pH 7.5, 20 mM NaCl (Table 2); 20 mM HEPES pH 8.0, 100 mM NaCl (Table 4); 20 mM Tris-HCl pH 7.8, 150 mM KCl (Table 5); settings: protein: recombinant; tags: N-terminal His6, cleaved by thrombin; chain copies: 2; label: 5'-Alexa647 on strand 1; blunt
T1 sequence: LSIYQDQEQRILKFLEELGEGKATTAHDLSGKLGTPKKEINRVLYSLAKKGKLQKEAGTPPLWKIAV

GH5*:α3NADAR1-PW [1] = target: T2, GH5*:α3NADAR1-PW (/ human ADAR1 α3N and β-wing residues, UniProt P02259, K41G;S42G;R43G;K53A;R95A;del65;D66K;L67K;Q68E;K70N;L71R;S72V;I73L;R74Y;R75S;S91P …); assay: MST; 100 mM NaCl, pH 8.0; MST at 22 C, 5 nM labeled DNA, 0.5 mg/ml BSA, 0.05% Tween 20; 5 mM HEPES pH 7.5, 20 mM NaCl (Table 2); 20 mM HEPES pH 8.0, 100 mM NaCl (Table 4); 20 mM Tris-HCl pH 7.8, 150 mM KCl (Table 5); settings: protein: recombinant; chain copies: 2; label: 5'-Alexa647 on strand 1; blunt
T2 sequence: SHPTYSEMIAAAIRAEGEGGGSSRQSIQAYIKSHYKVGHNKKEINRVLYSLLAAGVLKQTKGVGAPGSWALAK

GH5*:α3NADAR1-PW [2] = target: T2, GH5*:α3NADAR1-PW; assay: MST; 150 mM KCl, pH 7.8; MST at 22 C, 5 nM labeled DNA, 0.5 mg/ml BSA, 0.05% Tween 20; 5 mM HEPES pH 7.5, 20 mM NaCl (Table 2); 20 mM HEPES pH 8.0, 100 mM NaCl (Table 4); 20 mM Tris-HCl pH 7.8, 150 mM KCl (Table 5); settings: protein: recombinant; chain copies: 2; label: 5'-Alexa647 on strand 1; blunt
GH5* = target: T3, GH5* (UniProt P02259, K41G;S42G;R43G;K53A;R95A); assay: as above; settings: protein: recombinant; label: 5'-Alexa647 on strand 1; blunt
T3 sequence: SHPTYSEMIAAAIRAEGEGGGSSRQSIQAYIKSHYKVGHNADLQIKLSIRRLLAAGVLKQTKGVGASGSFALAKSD

vvZαE3L = vvZαE3L (UniProt P21605); assay: MST; 20 mM NaCl; text says 20 uM; MST at 22 C, 5 nM labeled DNA, 0.5 mg/ml BSA, 0.05% Tween 20; 5 mM HEPES pH 7.5, 20 mM NaCl (Table 2); 20 mM HEPES pH 8.0, 100 mM NaCl (Table 4); 20 mM Tris-HCl pH 7.8, 150 mM KCl (Table 5); settings: protein: recombinant; label: 5'-Alexa647 on strand 1; blunt

B1: B-DNA 21 bp (dsDNA)
DNA 1: TATGCAATCGTAATAAACCGT
DNA 2: ACGGTTTATTACGATTGCATA
B1 was tested, and the Kd (hZαADAR1) was 2.7 ± 0.5 µM, the Kd (GH5*:α3NADAR1-PW [1]) was 31 ± 2 µM and the Kd (GH5*:α3NADAR1-PW [2]) was 144 ± 16 µM. For the same binder, the Kd (GH5*) was 167 ± 50 µM and the Kd (vvZαE3L) was 21 ± 0.5 µM.
